Data as given in US10556007B2, “Antibody which binds Lrg1 and methods of use” (UCL Business PLC, priority 2015, dated 2020).
Entries after “also recorded” stand apart in the source; their conditions may differ.

Columns and labels:
LL/2 tumours = test: LL/2 tumour vasculature; format: in vivo, mouse; conditions: wild type mice, 50 mg per kg
Source text: B16/F0 and LL/2 […] tumour cell lines were grafted into wild type and Lrg1 knockout mice.

[1] = test system: lesions in RPE/Choroid of the JR5558 mouse; test: JR5558 mouse lesion formation; format: in vivo; conditions: 50 mg/kg IP every 3 days from D14, eyes harvested D25, vs IgG
Procedure: 15C4 or IgG at 50 mg/kg was administered IP every 3 days from D14. Eyes were harvested on D25 and RPE/Choroid stained with Collagen IV. The number of lesions was counted and data quantified for the two groups.

[2] = test system: laser-induced choroidal neovascularisation; test: Mouse model of laser-induced CNV; format: in vivo; conditions: intraocular injection at lasering, FFA after 7 days
Procedure: The images on the left of FIG. 17A show a typical wild-type mouse retina under normal illumination (Fundus), and under fluorescence illumination, 7 days after three laser burns were administered to the retinal pigment epithelium. Fluorescence images were captured ˜60 seconds after systemic dosing with fluorescein (Early Phase FFA) and again after ˜7 minutes (Late Phase FFA). At the time of lasering, animals received intraocular injections of either control IgG (top panels) or 15C4 (lower panels). The Early Phase FFA images show the size of the lesions, and the Late Phase images show leakage of fluorescein into the retina. Lesion sizes were quantified for 15C4 at 2.5, 5 and 10 μg doses, and also Eylea at 2 and 4 μg, and the % blocking is a measure of average lesion size relative to that observed in the controls. On the far right a similar analysis was undertaken using Eylea and Magacizumab (both at 2.1 μg) alone and in combination.
Wild type C57B6 mice were anaesthetized and received intravitreal injections of various doses of either Magacizumab, Eylea, or both in combination, immediately following laser photocoagulation of the retinal pigment epithelium. After 7 days (to allow the vascular lesions to form) the mice were again anaesthetized and examined by fluorescein angiography (FFA). Early phase FFA images (taken after 90 s) show the degree of vascularization at the lesion site. Measurement of the lesion area in the early phase images permits quantification in which percentage lesion size is normalized against the IgG4 control (FIG. 18).

B16/F0 tumours = test: B16/F0 subcutaneous tumour vasculature; format: in vivo, mouse
Procedure: The adherent cell line B16/F0 was harvested and single-cell suspensions of 1×10^6 cells in 100 μl PBS was injected subcutaneously into the lower back of C57B1/6 mice. Tumours were measured every other day with a caliper and volume was calculated using the formula: V=(4/3)×π×(L/2)×(W/2)×(H/2). The mice were sacrificed at defined time intervals or after the tumors reached 2000 mm^3. Treatment with 15C4 or IgG was started after three days at 50 mg/kg by intraperitoneal injections, and repeated every 3 days. Vessels were identified by CD31 immunohistochemistry on tumour sections (FIG. 11).

human Lrg1 [3] = target: T1, human Lrg1 (Homo sapiens, UniProt P02750); test: Western blot specificity for human Lrg1; format: binding; conditions: conditioned medium from MDA-MB cells, human vitreous, whole human serum
T1 sequence (P02750 36-347): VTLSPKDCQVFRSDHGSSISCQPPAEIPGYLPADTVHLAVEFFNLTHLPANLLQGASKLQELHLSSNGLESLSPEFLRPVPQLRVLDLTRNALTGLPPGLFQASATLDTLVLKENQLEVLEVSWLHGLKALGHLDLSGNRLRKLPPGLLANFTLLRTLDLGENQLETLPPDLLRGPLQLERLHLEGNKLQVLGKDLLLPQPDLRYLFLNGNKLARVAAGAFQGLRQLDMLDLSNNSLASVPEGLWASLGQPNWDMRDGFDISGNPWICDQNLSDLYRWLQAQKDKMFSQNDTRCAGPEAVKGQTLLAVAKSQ
Procedure: To evaluate the specificity of the lead mAbs for human Lrg1 western blot analysis of each was performed against conditioned medium from the MDA-MB human tumour cell line, samples of human vitreous humour, and samples of whole human serum.

[4] = test system: HUVEC co-cultured with human fibroblasts; test: HUVEC co-culture model of angiogenesis; format: cell-based; conditions: 14 days co-culture, 10-200 nM
Procedure: Antibodies 4H2, 15C4 and 3A11 were tested to see if they elicited an inhibition of vessel growth in the co-culture model of angiogenesis. HUVEC were co-cultured with human fibroblasts for 14 days, and then fixed and immunostained with an antibody against PECAM. Avastin was included as a positive control, and all four mAbs were tested at 10, 25, 50, 100 and 200 nM. There were two important observations from this experiment.

[5] = test system: laser-induced choroidal neovascularisation; test: Rat laser-induced choroidal neovascularisation (CNV); format: in vivo; conditions: Long Evans rats, intravitreal at time of lasering, analysis 7 days later
Procedure: Several antibodies were tested for their ability to block CNV in the rat. In these experiments mAbs were injected intravitreally at the time of lasering, with eyes being retrieved for analysis 7 days later (FIG. 5). Long Evans rats, aged 6-8 weeks, each received 5 retinal laser burns at the same time as intravitreal delivery of […] mAb or control IgG into both eyes. Four rats were used for each mAb, so a total of 40 lesions were analysed by staining for collagen IV and the neovascular areas quantified. […] Avastin was also tested in the rat laser model (data not shown) and observed to have no effect, consistent with Avastin having low affinity for rat VEGF.

human Lrg1 [6] = target: T1, human Lrg1; test: Biacore affinity and binding kinetics, human Lrg1
Procedure: Biacore was used to measure the binding affinity, association and dissociation constants of the antibodies to human Lrg1. Human Lrg1 was immobilized on the Biacore chip, and mAbs passed across at concentrations ranging from 20-100 nM. A cut off binding affinity value of 2 nM was used to isolate possible candidate antibodies for further investigation.
The four lead mAbs were examined using Biacore, in experiments in which human Lrg1 was immobilized on the chip, and mAbs passed across at concentrations ranging from 20-100 nM. The Table below summarises the kinetic data.

[7] = test system: Human umbilical vein endothelial cells (HUVEC); test: Matrigel tube formation assay; format: cell-based; conditions: 100 nM antibody, overnight
Procedure: The antibodies were tested for their ability to inhibit tube formation in a Matrigel assay. Human umbilical vein endothelial cells (HUVEC) were plated on Matrigel and cultured overnight in the presence of 100 nM mAbs. The blocking rabbit polyclonal Lrg1 antibody was also evaluated. […] Blocking with 4H2 never exceeded ˜50%.

B1: 15C4: mouse monoclonal antibody against human Lrg1, VH SEQ ID NO: 1, VL SEQ ID NO: 2 (antibody, V domains shown)
VH: QVQLQQSGDEVVRPGSSVKISCKASGYTFSGYWMNWVKQRPGQGLQWIGQIYPGDGDTNYNGKFKGKATLTADKSSSTAYMQLSTLTSEDSAIYFCARSITTVVLDYWGQGTTLTVSS
VL: DIVLTQSPVSLAVSLGQRATISCRASQSVSTSGYSFMHWYQQKPGQPPKFLIKYASNLESGVPARFSGSGSGTDFTLNIHPVEEEDTATYYCQHSWEMPLTFGAGTKLELK
modifications: 15C4 Variable Heavy Chain; 15C4 Variable light chain
replication of Lrg1 knockout tumour vessel phenotype (LL/2 tumours): These results were mimicked
number of lesions [1]: reduces lesion formation; also recorded: significantly fewer lesions
lesion formation [2]: inhibited lesion formation; also recorded: inhibit lesion formation with similar efficacy to the VEGF blocker Eylea
endothelial and pericyte co-localisation (B16/F0 tumours; C57BL6 mice, CD31 with αSMA or NG2, vs IgG): increases endothelial and pericyte co-localisation
small vessels / distribution of vessel sizes (CD31) (B16/F0 tumours; C57Bl/6 mice, 50 mg/kg IP every 3 days, vs IgG controls): Fewer small vessels
replication of Lrg1 knockout tumour vessel phenotype (B16/F0 tumours; wild type mice, 50 mg per kg): drives normalisation of tumour vessels; also recorded: These results were mimicked; also recorded: blood vessels are more functional and mature
recognition of Lrg1 band on western blot (human Lrg1 [3]): strongly recognise a single band of Lrg1 at 50 kD in the conditioned medium and vitreous
inhibition of vessel growth [4]: equally effective
blockade of angiogenesis (CNV) [5]: functional blockade of angiogenesis; also recorded: effective blockade; also recorded: less efficacious than 4H2 in the in vivo rodent models of angiogenesis
affinity for human Lrg1 (in words) (human Lrg1 [6]; Biacore): affinity in the picomolar range; also recorded: bound with especially high affinity; also recorded: very high affinity; also recorded: much higher affinity for human Lrg1
Ka (human Lrg1 [6]; human Lrg1 immobilized on chip, mAbs at 20-100 nM): 1.10E+05
dissociation rate constant (kd) (human Lrg1 [6]; rate constant column beside Ka, human Lrg1 immobilized on chip, mAbs at 20-100 nM): 1.40E−07
Kd (human Lrg1 [6]; text summary of Biacore data, read-out: binding affinities for human Lrg1): 1.2 pM
blocking of tube formation [7]: 60%
